Reference: patent US20120301468A1 (Bayer, published 2012)

B1: 1aa1 Fab (Fab, V domains shown)
VH: ELVQSGAEVKKPGASVKVSCKASGYTFTTNYMHWVRQAPGQGLEWMGIINPHNGSTSYAQKFQGRVTMTRDTSISTAYMELSSLRSEDTAVYYCARGRYFLMDVWGQGTLVTVSS
VL: DIQMTQSPSSLSASVGDRVTITCRASQNILSYLNWYQQKPGKAPKLLIYAASSLQSGVPSRFSGSGSGTDFTLTISSLQPEDFAVYYCQQYGSVPTFGQGTKVEIK
notes: Only CDRs are tied to the name
B2: 1aa1 full-length human IgG1 (antibody, V domains shown)
VH: QVELVQSGAEVKKPGASVKVSCKASGYTFTTNYMHWVRQAPGQGLEWMGIINPHNGSTSYAQKFQGRVTMTRDTSISTAYMELSSLRSEDTAVYYCARGRYFLMDVWGQGTLVTVSS
VL: B1 VL
notes: Full-length human IgG1 made from the Fab; Only CDRs are tied to the name
B3: 1aa1 immunoconjugate (antibody, human IgG1, V domains shown)
VH: B2 VH
VL: B1 VL
modifications: A cytotoxic drug (MMAE by paragraph 261) is conjugated to the IgG1. The chain and residues of attachment are not stated, and the letters do not carry the drug.
notes: Human IgG1 1aa1 conjugated to a cytotoxic drug; Only CDRs are tied to the name
B4: 5a6 Fab (Fab, V domains shown)
VH: ELVQSGAEVKKPGESLKISCKGSGYSFSKYWIGWVRQMPGKGLEWMGIIYPTDSYTRYSPSFQGQVTISADKSISTAYLQWSSLKASDTAMYYCARTHGYYKNGRMDVWGQGTLVTVSS
VL: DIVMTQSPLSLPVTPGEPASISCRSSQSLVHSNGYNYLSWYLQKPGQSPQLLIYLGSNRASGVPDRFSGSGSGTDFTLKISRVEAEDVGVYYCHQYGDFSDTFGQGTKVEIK
notes: as for B1
B5: 3ee9/MMAE (3ee9 human IgG1 conjugated to monomethylauristatin E) (antibody, V domains shown)
VH: QVELVESGGGLVQPGGSLRLSCAASGFTFSSYGMSWVRQAPGKGLEWVSGISSLGSTTYYADSVKGRFTISRDNSKNTLYLQMNSLRAEDTAVYYCARTGSPGTFMHGDHWGQGTLVTVSS
VL: DIQMTQSPSSLSASVGDRVTITCRASQDINNYLSWYQQKPGKAPKLLIYGASNLQSGVPSRFSGSGSGTDFTLTISSLQPEDFAVYYCQQYYGRPTTFGQGTKVEIKR
modifications: Monomethylauristatin E (MMAE) is conjugated to the antibody through a linker (FIG. 9). The chain and residues of attachment are not stated, and the letters do not carry the drug.
notes: Only CDRs are tied to the name; also called BAY 79-4620; 3ee9-IC
B6: 3ee9 full-length human IgG1 (antibody, V domains shown)
VH: B5 VH
VL: B5 VL
notes: Only CDRs are tied to the name; also called unconjugated antibody 3ee9; antibody portion of 3ee9/MMAE
B7: 3ah10 Fab (Fab, V domains shown)
VH: ELVESGGGLVQPGGSLRLSCAASGFTFSSYGISWVRQAPGKGLEWVSSISYSGSNTYYADSVKGRFTISRDNSKNTLYLQMNSLRAEDTAVYYCARMKPMRGYSGAVWGQGTLVTVSS
VL: DIQMTQSPSSLSASVGDRVTITCRASQDISNRLAWYQQKPGKAPKLLIYDANSLQSGVPSRFSGSGSGTDFTLTISSLQPEDFATYYCFQYSGPTFGQGTKVEIK
notes: as for B1
B8: 3ee9 Fab (Fab, V domains shown)
VH: ELVESGGGLVQPGGSLRLSCAASGFTFSSYGMSWVRQAPGKGLEWVSGISSLGSTTYYADSVKGRFTISRDNSKNTLYLQMNSLRAEDTAVYYCARTGSPGTFMHGDHWGQGTLVTVSS
VL: DIQMTQSPSSLSASVGDRVTITCRASQDINNYLSWYQQKPGKAPKLLIYGASNLQSGVPSRFSGSGSGTDFTLTISSLQPEDFAVYYCQQYYGRPTTFGQGTKVEIK
notes: only the CDRs are tied
B9: 5aa3 full-length human IgG1 (antibody, V domains shown)
VH: QVELVQSGAEVKKPGESLKISCKGSGYSFTGYISWVRQAPGKGLEWMGIIYPGDSYTNYSPSFQGQVTISADKSISTAYLQWSSLKASDTAMYYCARYSGPNWDVMDSWGQGTLVTVSS
VL: DIVLTQPPSVSGAPGQRVTISCSGSSSNIGSYYVNWYQQLPGTAPKLLIYADDKRPSGVPDRFSGSKSGTSASLAITGLQSEDEADYYCQSYDSTKDDSVFGGGTKLTVL
notes: as for B2
B10: 3bb2 Fab (Fab, V domains shown)
VH: ELVESGGGLVQPGGSLRLSCAASGFTFSNYGISWVRQAPGKGLEWVSAISYYGSNTYYADSVKGRFTISRDNSKNTLYLQMNSLRAEDTAVYYCARLKGGSGFVWGQGTLVTVSS
VL: DIVMTQSPLSLPVTPGEPASISCRSSQSLVYSNGNTTLSWYLQKPGQSPQLLIYGVSNRASGVPDRFSGSGSGTDFTLKISRVEAEDVGVYYCQQYNSFPRTFGQGTKVEIK
notes: as for B1
B11: 3ef2 Fab (Fab, V domains shown)
VH: ELVESGGGLVQPGGSLRLSCAASGFTFSSYGMHWVRQAPGKGLEYVSAISYSSSSTSYADSVKGRFTISRDNSKNTLYLQMNSLRAEDTAVYYCARLSYTGFAVWGQGTLVTVSS
VL: DIELTQPPSVSVAPGQTARISCSGDNLGSYYVHWYQQKPGQAPVLVIYDDNNRPSGIPERFSGSNSGNTATLTISGTQAEDEADYYCQSYDFGKVVFGGGTKLTVL
notes: as for B1
B12: 1e4 Fab (Fab, V domains shown)
VH: ELVESGGGLVQPGGSLRLSCAASGFTFSNNAMNWVRQAPGKGLEWVSGISYDSSKTYYADSVKGRFTISRDNSKNTLYLQMNSLRAEDTAVYYCARLTYTGAYRWGQGTLVTVSS
VL: B11 VL
notes: as for B1
B13: 3ef2 full-length human IgG1 (antibody, V domains shown)
VH: QVELVESGGGLVQPGGSLRLSCAASGFTFSSYGMHWVRQAPGKGLEYVSAISYSSSSTSYADSVKGRFTISRDNSKNTLYLQMNSLRAEDTAVYYCARLSYTGFAVWGQGTLVTVSS
VL: B11 VL
notes: as for B2
B14: 1e4 full-length human IgG1 (antibody, V domains shown)
VH: B12 VH
VL: B11 VL
notes: Full-length human IgG1 made from the Fab (IgG1 constant region PIR J00228); Only CDRs are tied to the name; also called monoclonal IgG1 1e4; anti-MN antibody 1e4
B15: 3ab4 Fab (Fab, V domains shown)
VH: ELVESGGGLVQPGGSLRLSCAASGFTFSSYGISWVRQAPGKGLEWVSGISYSGSSTYYADSVKGRFTISRDNSKNTLYLQMNSLRAEDTAVYYCARLKPYRHKNGWFDYWGQGTLVTVSS
VL: DIQMTQSPSSLSASVGDRVTITCRASQNISNYLNWYQQKPGKAPKLLIHKVSNLQSGVPSRFSGSGSGTDFTLTISSLQPEDFAVYYCLQYDDFPRTFGQGTKVEIK
notes: as for B1

Key:
[1] = target: T1, human MN protein, entire extra-cellular domain with a C-terminal histag, expressed in HKB-11 cells (human, UniProt Q16790 38-414); assay: BIAcore surface plasmon resonance; Fab captured on immobilized anti-human-Fab IgG, purified human MN (HKB-11) as analyte; 1:1 Langmuir fit
[2] = target: T1, human MN protein, entire extra-cellular …; assay: BIAcore surface plasmon resonance; IgG captured on immobilized goat anti-human IgG Fc, purified human MN (HKB-11) as analyte; 1:1 Langmuir fit
[3] = target: T1, human MN protein, entire extra-cellular …; assay: SPR, BIAcore 3000, IgG captured by anti-human IgG Fc, MN as analyte, 1:1 Langmuir fit
[4] = target: T2, MN protein on the surface of MN-expressing (MN+) cells (PC3 mm2, MaTu) (human, UniProt Q16790 38-459); assay: FACS on PC3mm2 (MN+) cells with DLD (MN-) cells as negative cells; traces not labelled on the sheet
[5] = target: T1, human MN protein, entire extra-cellular …; assay: Biacore (SPR), purified MN protein
[6] = target: T2, MN protein on the surface of …; assay: cell-based or functional assay
[7] = target: T1, human MN protein, entire extra-cellular …; assay: Biacore (SPR), purified MN protein; remark: listed apart in the source

Binder	Kd [1]	Kd [3]	further results
B1	0.15 nM	–	–
B2	–	27 nM	Kd [2]: 49 nM
B3	–	–	binding result [4]: binds
B4	3.4 nM	–	–
B5	–	–	Kd [5]: 3.6 nM; Cytotoxicity: MN+/MN- (ec50) [6]: 50 nM
B6	–	4 nM	Kd [2]: 5.9 nM; Kd [7]: 3.6 nM
B7	16 nM	–	–
B8	16 nM	–	–
B9	–	1 nM	–
B10	27 nM	–	–
B11	4.1 nM	–	–
B12	1.4 nM	–	–
B13	–	6 nM	–
B14	–	5 nM	Kd [2]: 1 nM
B15	50 nM	–	–
